Results reported in article PMC7884259 (Journal of medicinal chemistry, 2020).
Where a chain is given by its changes, count along the chain named. Where no end group is shown, it is not given here.

T1: ATAD2B bromodomain (residues 953–1085) (human, UniProt Q9ULI0 953-1085)
T1 sequence (looked up): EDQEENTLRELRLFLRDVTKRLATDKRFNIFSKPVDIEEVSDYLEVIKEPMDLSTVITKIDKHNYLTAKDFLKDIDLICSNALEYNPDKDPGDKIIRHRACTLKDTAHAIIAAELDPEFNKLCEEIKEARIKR

T2: ATAD2B bromodomain N1038A (human, UniProt Q9ULI0 953-1085, N1038A)
T2 sequence (looked up): T1 sequence (looked up) with N86A


Key:
[1] = molecular target: T1, ATAD2B bromodomain (residues 953–1085); test: ITC
[2] = molecular target: T2, ATAD2B bromodomain N1038A; test: ITC

Row | Kd [1] | Kd [2] | Binder
1 | 1160 µM | – | SGRGKGGK(Ac)GL-NH2 [H4K8ac (res 1–10)]
2 | 48 µM | – | SGRGK(Ac)GGKGL-NH2 [H4K5ac (res 1–10)]
3 | 28.1 µM | 623 µM | SGRGK(Ac)GGK(Ac)GL-NH2 [H4K5acK8ac (res 1–10)]
4 | 42.5 µM | – | SGRGK(Ac)QGGKARA-NH2 [H2AK5ac (res 1–12)]
